Values quoted from earlier work in publication PMC4303049.

Legend:
[1] = molecular target: PACS-1 FBR (Homo sapiens) (UniProt Q6VY07)
[2] = molecular target: PACS-2 FBR (Homo sapiens) (UniProt Q86VP3)
Chain of PACS-2 FBR (Homo sapiens) (Q86VP3 37-186): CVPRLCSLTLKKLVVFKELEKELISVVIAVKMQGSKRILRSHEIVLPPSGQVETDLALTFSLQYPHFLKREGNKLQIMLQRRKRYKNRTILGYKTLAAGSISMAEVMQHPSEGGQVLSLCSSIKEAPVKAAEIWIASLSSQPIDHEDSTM

Chain of PACS-1 FBR (Homo sapiens) (Q6VY07 117-266): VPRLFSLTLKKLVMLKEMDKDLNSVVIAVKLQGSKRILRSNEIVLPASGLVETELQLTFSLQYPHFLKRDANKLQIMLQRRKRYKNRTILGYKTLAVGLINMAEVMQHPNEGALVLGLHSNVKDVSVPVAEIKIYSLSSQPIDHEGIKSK

Kd [1]: 14.8 µM
Kd [2]: 15.4 µM
Substance: Polycystin-2 phosphorylated acidic cluster (from UniProt Q13563)
